The values that follow come from patent US20160238596.

The target in data set [1] is T1, Cyclised HNE substrate lacking the tyrosine residue (CQESIRLPGC attached to the scaffold).
T1 chain: CQESIRLPGC

Data set [2] addresses T2, Cyclised MOL488 peptide (YCQESIRLPGC attached to the scaffold derived from 1,3-dibromomethylbenzene).
T2 chain: YCQESIRLPGC

Data set [3] has as its target Indicator molecule containing the cleavable sequence GPQGIFGQ with a terminal biotin group connected via a polyethylene glycol spacer/linker (intact).

B1: Human Neutrophil elastase (Leeblo Solutions inc.) (protein)
chain: IVGGRRARPHAWPFMVSLQLRGGHFCGATLIAPNFVMSAAHCVANVNVRAVRVVLGAHNLSRREPTRQVFAVQRIFENGYDPVNLLNDIVILQLNGSATINANVQVAQLPAQGRRLGNGVQCLAMGWGLLGRNRGIASVLQELNVTVVTSLCRRSNVCTLVRGRQAGVCFGDSGSPLVCNGLIHGIASFVRGGCASGLYPDAFAPVAQFVNWIDSIIQ
Regarding B1, in data set [1], the “HPLC analysis of elastase digestion” value is listed as “a single cleavage product results from HNE activity on the peptide”; the “mass spectrometry of substrate and hydrolysed product” value is “the substrate is cleaved at a single site and that the substrate otherwise remains intact”. Moreover, the “preparative enzymatic cleavage followed by HPLC and mass spectrometry” value in data set [2] was “A new product peak evolved over time”.

B2: MMP 12 (Enzo) (protein)
chain: FREMPGGPVWRKHYITYRINNYTPDMNREDVDYAIRKAFQVWSNVTPLKFSKINTGMADILVVFARGAHGDFHAFDGKGGILAHAFGPGSGIGGDAHFDEDEFWTTHSGGTNLFLTAVHEIGHSLGLGHSSDPKAVMFPTYKYVDINTFRLSADDIRGIQSLYG
As to B2, the Reader value (lateral flow, CF1522 gold) at 0.5 µg/ml MMP in data set [3] was found to be 1250 reader units.

B3: MMP 11 (Enzo) (protein)
chain: FVLSGGRWEKTDLTYRILRFPWQLVQEQVRQTMAEALKVWSDVTPLTFTEVHEGRADIMIDFARYWHGDDLPFDGPGGILAHAFFPKTHREGDVHFDYDETWTIGDDQGTDLLQVAAHEFGHVLGLQHTTAAKALMSAFYTFRYPLSLSPDDCRGVQHLYGQPWPTVTSRTPA
In data set [3], B3 yielded a Reader value (lateral flow, CF1522 gold) at 0.5 µg/ml MMP of 280 reader units.

B4: MMP 1 (Enzo) (protein)
chain: FVLTEGNPRWEQTHLTYRIENYTPDLPRADVDHAIEKAFQLWSNVTPLTFTKVSEGQADIMISFVRGDHRDNSPFDGPGGNLAHAFQPGPGIGGDAHFDEDERWTNNFREYNLHRVAAHELGHSLGLSHSTDIGALMYPSYTFSGDVQLAQDDIDGIQAIYGRSQNPVQP
B4 yielded a Reader value (lateral flow, CF1522 gold) at 0.5 µg/ml MMP in data set [3] of 478 reader units.

B5: MMP 7 (Enzo) (protein)
chain: YSLFPNSPKWTSKVVTYRIVSYTRDLPHITVDRLVSKALNMWGKEIPLHFRKVVWGTADIMIGFARGAHGDSYPFDGPGNTLAHAFAPGTGLGGDAHFDEDERWTDGSSLGINFLYAATHELGHSLGMGHSSDPNAVMYPTYGNGDPQNFKLSQDDIKGIQKLYGKRSNSRKK
Regarding B5, the Reader value (lateral flow, CF1522 gold) at 0.5 µg/ml MMP in data set [3] was determined as 373 reader units.
